The results in this text go back to patent publication US20100105151A1.

As usually defined, the Kd is the equilibrium constant for the complex coming apart. Higher therefore signals weaker binding. The term EC50 (read off the curve) denotes the concentration at which the effect is half-maximal.

Experiment [1] concerns the target T1, trimeric, post-fusion form of sE, the soluble fragment of dengue virus type 2 (S1 strain) envelope glycoprotein E (dengue virus type 2 S1 strain), P12823. Put plainly: fluorescence depolarization.
Experiment [2] addresses T1, trimeric, post-fusion form of sE, the ….
Experiment [3] has the same target. Put plainly: fluorescence depolarization, labeled peptide titrated with trimeric sE.
Experiment [4] shares this target. Nature of the experiment: fluorescence depolarization; 33nM labelled peptide titrated with dengue sE trimer (x axis µM E).

Read-outs that look alike come from different tables or passages of the source.

B1: stem peptide including residues 413-447 of dengue envelope protein E (peptide)
peptide: AILGDTAWDFGSLGGVFTSIGKALHQVFGAIYGAA
modifications: not checked
As to B1, the Kd in experiment [1] came to 4 µM. In experiment [2], this molecule gave an EC50 (read off the curve) of 3 µM.

B2: fluorescently labeled version of the peptide corresponding to residues 396-429 (stem region) of deng (peptide)
peptide: SSIGQMFETTMRGAKRMAILGDTAWDFGSLGGVF
modifications: not checked
In the case of B2, the dissociation constant Kd in experiment [3] was 6 µM. In addition, the EC50 (read off the curve) in experiment [4] was 5 µM.
